Experiments:
ALK3 on C2C12 cells = target: T1, ALK3 on C2C12 cells (Mus musculus (C2C12, endogenous), UniProt P36895); assay: flow cytometry on cells; JAB0505 on parental (wild-type ACVR1-expressing) and ACVR1-KO C2C12 cells; conditions: one partner purified
T1 construct: ALK3 (BMPR1A), mouse, endogenous on the surface of C2C12 cells; also called Bmpr1a; source: endogenous, on mouse C2C12 myoblast cells (ACVR1-KO clone)

[1] = target: T2, ACVR1 on parental C2C12 cells (Mus musculus (C2C12, endogenous), UniProt P37172); assay: as above; conditions: one partner purified
T2 construct: ACVR1 (ALK2), mouse, endogenous on the surface of C2C12 cells; also called ALK2; wild-type ACVR1; source: endogenous, on mouse C2C12 myoblast cells
T2 sequence (P37172 21-509): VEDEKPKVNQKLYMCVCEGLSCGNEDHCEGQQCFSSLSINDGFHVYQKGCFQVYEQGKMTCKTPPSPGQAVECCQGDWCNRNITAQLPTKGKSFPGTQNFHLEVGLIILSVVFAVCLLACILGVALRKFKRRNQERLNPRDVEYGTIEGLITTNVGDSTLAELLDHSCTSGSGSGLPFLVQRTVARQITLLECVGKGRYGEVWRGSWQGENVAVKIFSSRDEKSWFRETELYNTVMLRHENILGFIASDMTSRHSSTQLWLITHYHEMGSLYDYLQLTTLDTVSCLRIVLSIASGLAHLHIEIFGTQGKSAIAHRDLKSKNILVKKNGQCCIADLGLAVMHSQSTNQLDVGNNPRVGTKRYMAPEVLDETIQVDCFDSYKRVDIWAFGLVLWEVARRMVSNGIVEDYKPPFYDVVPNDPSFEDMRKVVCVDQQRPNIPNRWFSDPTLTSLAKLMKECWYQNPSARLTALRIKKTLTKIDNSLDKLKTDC

[2] = target: T3, ACVR1 (as used for surface plasmon resonance) (Homo sapiens (assumed), UniProt Q04771); assay: SPR; BIAcore; which partner was immobilised, and the conditions, are not told in the text shown; conditions: both partners purified
T3 construct: ACVR1 (ALK2), BMP type I receptor; For other steps (serum ELISA, panning, BLI) the methods name recombinant human ACVR1 extracellular domain proteins (Creative Biomart ACVR1-01H; Sino Biologicals 10227-H03B; R&D Systems 637-AR), but none is named for the BIAcore measurement; It was probably an extracellular domain construct; also called ALK2; BMP type I receptor ACVR1
T3 sequence (Q04771 21-509): as the sequence (P37172 21-509) above, with V1M, Q10P, I121L, E162D, S310P counted along it

T1 sequence (P36895 24-532): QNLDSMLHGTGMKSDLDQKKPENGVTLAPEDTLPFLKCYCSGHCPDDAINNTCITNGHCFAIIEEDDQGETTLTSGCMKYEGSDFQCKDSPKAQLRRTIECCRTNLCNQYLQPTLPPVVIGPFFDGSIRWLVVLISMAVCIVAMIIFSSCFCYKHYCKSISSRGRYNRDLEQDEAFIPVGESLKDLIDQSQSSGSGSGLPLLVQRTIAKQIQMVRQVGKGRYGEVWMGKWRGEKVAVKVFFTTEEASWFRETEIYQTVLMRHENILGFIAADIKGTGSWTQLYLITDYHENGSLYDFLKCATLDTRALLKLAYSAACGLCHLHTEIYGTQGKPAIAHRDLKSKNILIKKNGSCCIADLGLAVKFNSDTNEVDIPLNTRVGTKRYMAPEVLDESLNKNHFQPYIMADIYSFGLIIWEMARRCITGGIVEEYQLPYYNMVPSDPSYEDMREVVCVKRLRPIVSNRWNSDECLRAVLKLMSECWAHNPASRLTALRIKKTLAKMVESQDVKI

binding result (ALK3 on C2C12 cells): no binding | binding result [1]: binds | Kd [2]: ~25 nM
B1: anti-ACVR1 monoclonal antibody JAB0505 (antibody, V domains shown)
VH: EVQLQQSGAELVRPGASVRLSCTASGFNIKDSLMHWVKQRPEQGLEWIGWIDPEDGETRYAPNFQDKATITAVTSSNTAYLQLSSLTSEDSAIYYCARYTSRYYTMDYWGQGTSVTVSS
VL: DIQMTQSPASQSASLGESVTFTCLASQTIGTWLAWYQQKPGKSPQLLIYAATSLADGVPSRFSGSGSGTKFSFKISSLQAEDFASYYCQQLYWTPWTFGGGTKLEIK
notes: also called anti-ACVR1 mAb; mAb JAB0505; source: HEK293 cells, purified by protein A chromatography; copies: 2 + 2

Source: PMC9197527, “An anti-ACVR1 antibody exacerbates heterotopic ossification by fibro-adipogenic progenitors in fibrodysplasia ossificans progressiva mice” (The Journal of Clinical Investigation, 2022)
